System: Escherichia coli TOP10
Assay: shrunken log2 fold change of peptide-encoding DNA abundance (4.5 h post-induction vs induction); higher = less antimicrobial activity (less host growth inhibition)
Details: time post-induction: 4.5 h; library: site-saturation at positions 5, 18, 19, 20
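Also: peptides expressed intracellularly from a pBAD plasmid library in pooled LB shake-flask culture, induced with 0.3% L-arabinose, DNA abundance read by NGS, three biological replicates, DESeq2 with apeglm shrinkage.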

RRIRGRPPRLPRPRPRPAVLPRP
shrunken log2 fold change: 0.394

RRIRGRPPRLPRPRPRPAVVPRP
shrunken log2 fold change: 0.488

RRIRGRPPRLPRPRPRPCEAPRP
shrunken log2 fold change: 0.838

RRIRGRPPRLPRPRPRPCEKPRP
shrunken log2 fold change: 0.797

RRIRGRPPRLPRPRPRPCFNPRP
shrunken log2 fold change: 0.436

RRIRGRPPRLPRPRPRPCGDPRP
shrunken log2 fold change: 0.581

RRIRGRPPRLPRPRPRPCGLPRP
shrunken log2 fold change: 0.641

RRIRGRPPRLPRPRPRPCIKPRP
shrunken log2 fold change: 0.268

RRIRGRPPRLPRPRPRPCKDPRP
shrunken log2 fold change: -0.0805

RRIRGRPPRLPRPRPRPCMQPRP
shrunken log2 fold change: -0.0315

RRIRGRPPRLPRPRPRPCNNPRP
shrunken log2 fold change: 0.0304

RRIRGRPPRLPRPRPRPCQDPRP
shrunken log2 fold change: -0.233

RRIRGRPPRLPRPRPRPCQNPRP
shrunken log2 fold change: 0.0697

RRIRGRPPRLPRPRPRPCQQPRP
shrunken log2 fold change: 0.0696

RRIRGRPPRLPRPRPRPCQSPRP
shrunken log2 fold change: 0.108

RRIRGRPPRLPRPRPRPCQVPRP
shrunken log2 fold change: 0.224

RRIRGRPPRLPRPRPRPCRCPRP
shrunken log2 fold change: 0.107

RRIRGRPPRLPRPRPRPCRDPRP
shrunken log2 fold change: 0.128

RRIRGRPPRLPRPRPRPCRIPRP
shrunken log2 fold change: -0.0785

RRIRGRPPRLPRPRPRPCSAPRP
shrunken log2 fold change: 1.58

RRIRGRPPRLPRPRPRPCSSPRP
shrunken log2 fold change: -0.129

RRIRGRPPRLPRPRPRPCTVPRP
shrunken log2 fold change: 0.032

RRIRGRPPRLPRPRPRPCVIPRP
shrunken log2 fold change: 0.033

RRIRGRPPRLPRPRPRPCVQPRP
shrunken log2 fold change: 0.523

RRIRGRPPRLPRPRPRPCWDPRP
shrunken log2 fold change: 0.217

RRIRGRPPRLPRPRPRPCWTPRP
shrunken log2 fold change: 0.28

RRIRGRPPRLPRPRPRPCYRPRP
shrunken log2 fold change: -0.0861

RRIRGRPPRLPRPRPRPCYVPRP
shrunken log2 fold change: -0.0858

RRIRGRPPRLPRPRPRPDCPPRP
shrunken log2 fold change: 0.22

RRIRGRPPRLPRPRPRPDCSPRP
shrunken log2 fold change: 0.798

RRIRGRPPRLPRPRPRPDDRPRP
shrunken log2 fold change: 0.814

RRIRGRPPRLPRPRPRPDEGPRP
shrunken log2 fold change: -0.001

RRIRGRPPRLPRPRPRPDERPRP
shrunken log2 fold change: 0.104

RRIRGRPPRLPRPRPRPDFFPRP
shrunken log2 fold change: 1.1

RRIRGRPPRLPRPRPRPDFLPRP
shrunken log2 fold change: 0.318

RRIRGRPPRLPRPRPRPDHLPRP
shrunken log2 fold change: 0.117

RRIRGRPPRLPRPRPRPDNHPRP
shrunken log2 fold change: 0.125

RRIRGRPPRLPRPRPRPDNWPRP
shrunken log2 fold change: 0.347

RRIRGRPPRLPRPRPRPDPQPRP
shrunken log2 fold change: 0.694

RRIRGRPPRLPRPRPRPDQEPRP
shrunken log2 fold change: 1.05

RRIRGRPPRLPRPRPRPDQYPRP
shrunken log2 fold change: -0.212

RRIRGRPPRLPRPRPRPDRVPRP
shrunken log2 fold change: 0.311

RRIRGRPPRLPRPRPRPDSCPRP
shrunken log2 fold change: 0.426

RRIRGRPPRLPRPRPRPDSWPRP
shrunken log2 fold change: 0.627

RRIRGRPPRLPRPRPRPDTAPRP
shrunken log2 fold change: 1

RRIRGRPPRLPRPRPRPDVFPRP
shrunken log2 fold change: 0.438

RRIRGRPPRLPRPRPRPDWHPRP
shrunken log2 fold change: 0.238

RRIRGRPPRLPRPRPRPEALPRP
shrunken log2 fold change: 1.33

RRIRGRPPRLPRPRPRPECLPRP
shrunken log2 fold change: 0.685

RRIRGRPPRLPRPRPRPECRPRP
shrunken log2 fold change: 1.32

RRIRGRPPRLPRPRPRPEDGPRP
shrunken log2 fold change: 1.31

RRIRGRPPRLPRPRPRPEDQPRP
shrunken log2 fold change: 0.0373

RRIRGRPPRLPRPRPRPEGDPRP
shrunken log2 fold change: 1.94

RRIRGRPPRLPRPRPRPEHNPRP
shrunken log2 fold change: 0.327

RRIRGRPPRLPRPRPRPEIIPRP
shrunken log2 fold change: 1.5

RRIRGRPPRLPRPRPRPEKRPRP
shrunken log2 fold change: 0.993

RRIRGRPPRLPRPRPRPELCPRP
shrunken log2 fold change: 0.18

RRIRGRPPRLPRPRPRPELDPRP
shrunken log2 fold change: 0.807

RRIRGRPPRLPRPRPRPELNPRP
shrunken log2 fold change: 0.724

RRIRGRPPRLPRPRPRPELSPRP
shrunken log2 fold change: 0.169

RRIRGRPPRLPRPRPRPELTPRP
shrunken log2 fold change: 2.02

RRIRGRPPRLPRPRPRPEMCPRP
shrunken log2 fold change: 1.4

RRIRGRPPRLPRPRPRPENIPRP
shrunken log2 fold change: 0.204

RRIRGRPPRLPRPRPRPENNPRP
shrunken log2 fold change: 0.502

RRIRGRPPRLPRPRPRPENQPRP
shrunken log2 fold change: 0.534

RRIRGRPPRLPRPRPRPEPQPRP
shrunken log2 fold change: 1.41

RRIRGRPPRLPRPRPRPESHPRP
shrunken log2 fold change: 0.124

RRIRGRPPRLPRPRPRPESSPRP
shrunken log2 fold change: 1.26

RRIRGRPPRLPRPRPRPESTPRP
shrunken log2 fold change: 1.63

RRIRGRPPRLPRPRPRPEYGPRP
shrunken log2 fold change: -0.0112

RRIRGRPPRLPRPRPRPEYTPRP
shrunken log2 fold change: 0.335

RRIRGRPPRLPRPRPRPFATPRP
shrunken log2 fold change: 2.68

RRIRGRPPRLPRPRPRPFDFPRP
shrunken log2 fold change: 0.26

RRIRGRPPRLPRPRPRPFDIPRP
shrunken log2 fold change: 0.198

RRIRGRPPRLPRPRPRPFEHPRP
shrunken log2 fold change: 0.212

RRIRGRPPRLPRPRPRPFFIPRP
shrunken log2 fold change: 0.0612

RRIRGRPPRLPRPRPRPFFWPRP
shrunken log2 fold change: 0.499

RRIRGRPPRLPRPRPRPFHKPRP
shrunken log2 fold change: -0.411

RRIRGRPPRLPRPRPRPFIKPRP
shrunken log2 fold change: -0.484

RRIRGRPPRLPRPRPRPFKHPRP
shrunken log2 fold change: -0.527

RRIRGRPPRLPRPRPRPFKWPRP
shrunken log2 fold change: -0.0584

RRIRGRPPRLPRPRPRPFLNPRP
shrunken log2 fold change: 0.18

RRIRGRPPRLPRPRPRPFLSPRP
shrunken log2 fold change: 0.162

RRIRGRPPRLPRPRPRPFPEPRP
shrunken log2 fold change: 0.56

RRIRGRPPRLPRPRPRPFPIPRP
shrunken log2 fold change: 0.21

RRIRGRPPRLPRPRPRPFPNPRP
shrunken log2 fold change: 0.26

RRIRGRPPRLPRPRPRPFPVPRP
shrunken log2 fold change: 0.291

RRIRGRPPRLPRPRPRPFQYPRP
shrunken log2 fold change: 0.105

RRIRGRPPRLPRPRPRPFSCPRP
shrunken log2 fold change: -0.262

RRIRGRPPRLPRPRPRPFWIPRP
shrunken log2 fold change: -0.432

RRIRGRPPRLPRPRPRPGAVPRP
shrunken log2 fold change: 0.961

RRIRGRPPRLPRPRPRPGCHPRP
shrunken log2 fold change: 0.549

RRIRGRPPRLPRPRPRPGCIPRP
shrunken log2 fold change: 0.445

RRIRGRPPRLPRPRPRPGCQPRP
shrunken log2 fold change: 1.17

RRIRGRPPRLPRPRPRPGDFPRP
shrunken log2 fold change: 0.00388

RRIRGRPPRLPRPRPRPGDHPRP
shrunken log2 fold change: 0.333

RRIRGRPPRLPRPRPRPGICPRP
shrunken log2 fold change: 0.808

RRIRGRPPRLPRPRPRPGIYPRP
shrunken log2 fold change: 0.641

RRIRGRPPRLPRPRPRPGKRPRP
shrunken log2 fold change: 0.249

RRIRGRPPRLPRPRPRPGLIPRP
shrunken log2 fold change: -0.0196

RRIRGRPPRLPRPRPRPGLLPRP
shrunken log2 fold change: 0.791

RRIRGRPPRLPRPRPRPGLQPRP
shrunken log2 fold change: 0.236

RRIRGRPPRLPRPRPRPGMTPRP
shrunken log2 fold change: 0.792

RRIRGRPPRLPRPRPRPGPAPRP
shrunken log2 fold change: 1.02

RRIRGRPPRLPRPRPRPGRGPRP
shrunken log2 fold change: 0.773

RRIRGRPPRLPRPRPRPGRSPRP
shrunken log2 fold change: 0.85

RRIRGRPPRLPRPRPRPGSDPRP
shrunken log2 fold change: 1.06

RRIRGRPPRLPRPRPRPGTPPRP
shrunken log2 fold change: 0.919

RRIRGRPPRLPRPRPRPGVDPRP
shrunken log2 fold change: 0.951

RRIRGRPPRLPRPRPRPGWCPRP
shrunken log2 fold change: 0.484

RRIRGRPPRLPRPRPRPGWGPRP
shrunken log2 fold change: 0.73

RRIRGRPPRLPRPRPRPHALPRP
shrunken log2 fold change: 0.0818

RRIRGRPPRLPRPRPRPHATPRP
shrunken log2 fold change: 1.35

RRIRGRPPRLPRPRPRPHCFPRP
shrunken log2 fold change: 0.233

RRIRGRPPRLPRPRPRPHCWPRP
shrunken log2 fold change: 0.69

RRIRGRPPRLPRPRPRPHDPPRP
shrunken log2 fold change: 0.546

RRIRGRPPRLPRPRPRPHFMPRP
shrunken log2 fold change: 0.152

RRIRGRPPRLPRPRPRPHHFPRP
shrunken log2 fold change: -0.0789

RRIRGRPPRLPRPRPRPHHPPRP
shrunken log2 fold change: 1.21

RRIRGRPPRLPRPRPRPHIHPRP
shrunken log2 fold change: -0.0259

RRIRGRPPRLPRPRPRPHIPPRP
shrunken log2 fold change: -0.101

RRIRGRPPRLPRPRPRPHKGPRP
shrunken log2 fold change: -0.136

RRIRGRPPRLPRPRPRPHKIPRP
shrunken log2 fold change: 0.11

RRIRGRPPRLPRPRPRPHLGPRP
shrunken log2 fold change: 0.427

RRIRGRPPRLPRPRPRPHLRPRP
shrunken log2 fold change: -0.148

RRIRGRPPRLPRPRPRPHMPPRP
shrunken log2 fold change: -0.0535

RRIRGRPPRLPRPRPRPHMQPRP
shrunken log2 fold change: -0.121

RRIRGRPPRLPRPRPRPHNVPRP
shrunken log2 fold change: 0.0498

RRIRGRPPRLPRPRPRPHQAPRP
shrunken log2 fold change: 0.354

RRIRGRPPRLPRPRPRPHQLPRP
shrunken log2 fold change: 0.339

RRIRGRPPRLPRPRPRPHRGPRP
shrunken log2 fold change: 0.0302

RRIRGRPPRLPRPRPRPHRQPRP
shrunken log2 fold change: 0.0397

RRIRGRPPRLPRPRPRPHVLPRP
shrunken log2 fold change: -0.00476

RRIRGRPPRLPRPRPRPIDLPRP
shrunken log2 fold change: 0.00416

RRIRGRPPRLPRPRPRPIDRPRP
shrunken log2 fold change: 0.127

RRIRGRPPRLPRPRPRPIECPRP
shrunken log2 fold change: 0.146

RRIRGRPPRLPRPRPRPIEPPRP
shrunken log2 fold change: 0.491

RRIRGRPPRLPRPRPRPIEVPRP
shrunken log2 fold change: 0.289

RRIRGRPPRLPRPRPRPIFYPRP
shrunken log2 fold change: 0.0354

RRIRGRPPRLPRPRPRPIGAPRP
shrunken log2 fold change: 0.251

RRIRGRPPRLPRPRPRPIHIPRP
shrunken log2 fold change: 0.304

RRIRGRPPRLPRPRPRPIHRPRP
shrunken log2 fold change: 0.0525

RRIRGRPPRLPRPRPRPIHWPRP
shrunken log2 fold change: 0.306

RRIRGRPPRLPRPRPRPIKCPRP
shrunken log2 fold change: -0.0104

RRIRGRPPRLPRPRPRPIKLPRP
shrunken log2 fold change: 0.125

RRIRGRPPRLPRPRPRPIKPPRP
shrunken log2 fold change: -0.0362

RRIRGRPPRLPRPRPRPINGPRP
shrunken log2 fold change: 0.1

RRIRGRPPRLPRPRPRPINSPRP
shrunken log2 fold change: 0.134

RRIRGRPPRLPRPRPRPIPEPRP
shrunken log2 fold change: 0.462

RRIRGRPPRLPRPRPRPIPSPRP
shrunken log2 fold change: 0.485
